Three substances from patent publication US20080038777A1 can be followed below.

In test [1] the target is dog-human chimeric C-C chemokine receptor 2B (dog-human chimera (synthetic)). Nature of the test: cell-based or functional assay.
For test [2], the target named is human C-C chemokine receptor 2B (human) (UniProt P41597). Nature of the test: cell-based or functional assay.
Sequence of human C-C chemokine receptor 2B (human) (P41597 whole entry): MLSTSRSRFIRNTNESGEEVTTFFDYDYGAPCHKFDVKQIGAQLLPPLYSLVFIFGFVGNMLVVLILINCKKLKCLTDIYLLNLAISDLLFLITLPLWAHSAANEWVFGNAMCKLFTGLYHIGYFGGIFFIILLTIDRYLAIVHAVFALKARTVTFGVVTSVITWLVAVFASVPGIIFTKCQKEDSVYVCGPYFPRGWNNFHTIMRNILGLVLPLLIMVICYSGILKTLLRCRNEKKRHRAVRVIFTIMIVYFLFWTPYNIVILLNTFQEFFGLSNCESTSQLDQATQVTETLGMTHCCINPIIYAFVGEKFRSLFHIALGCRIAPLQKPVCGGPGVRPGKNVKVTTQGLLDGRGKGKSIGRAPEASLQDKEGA

Sequence of dog-human chimeric C-C chemokine receptor 2B (dog-human chimera (synthetic)) (chain, as listed by the source mutant limits assumed): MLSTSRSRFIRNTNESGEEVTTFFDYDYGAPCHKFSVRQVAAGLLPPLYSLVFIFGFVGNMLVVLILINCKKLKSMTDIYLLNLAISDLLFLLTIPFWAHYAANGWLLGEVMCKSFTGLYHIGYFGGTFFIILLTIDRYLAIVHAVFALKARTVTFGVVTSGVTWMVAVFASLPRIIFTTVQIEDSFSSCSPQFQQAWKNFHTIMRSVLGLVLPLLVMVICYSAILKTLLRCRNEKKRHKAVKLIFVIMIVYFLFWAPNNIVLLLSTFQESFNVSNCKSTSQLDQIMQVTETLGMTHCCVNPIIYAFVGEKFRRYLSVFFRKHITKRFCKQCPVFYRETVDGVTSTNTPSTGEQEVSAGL

For the substance “human monocyte chemoattractant protein-1 (from UniProt P13500 24-99) (ligand)”, the EC50 of MCP-1-dependent calcium mobilization (FLIPR), CHO-K1 cells expressing the chimeric receptor in test [1] stood at 1.5 nM. In test [2], the EC50 of MCP-1 signaling (calcium mobilization, FLIPR) in THP-1 cells was 3 nM and the calcium mobilization (FLIPR), THP-1 cells amounted to 8 nM.

On to “mouse monocyte chemoattractant protein-1 (from UniProt P10148 24-148) (ligand)”, for which the EC50 of calcium mobilization (FLIPR), THP-1 cells in test [2] stood at 30 nM.

Take “canine monocyte chemoattractant protein-1 (from UniProt P52203 24-101) (ligand)”: the EC50 of calcium mobilization (FLIPR), THP-1 cells in test [2] worked out at 53 nM.
